Assay [1] concerns the target long-form human leptin receptor, OB-Rb (human) (UniProt P48357). Nature of the assay: binding of labelled leptin to HEK293 cells stably transfected with human OB-Rb.
Assay [2] addresses T1, human leptin (SEQ ID NO:4) (human, UniProt P41159 22-167).
T1 construct: Recombinant human leptin; also called recombinant human leptin
Put plainly: derived from the IC50 of CRP against 125I-human leptin binding to OB-Rb HEK293 cells. On the procedure: (§1) 4. […] After 10 minute incubation at room temperature, the reaction was stopped with 100 μl 0.1% trifluoroacetic acid (TFA). The reaction mixture was immediately purified by reverse-phase HPLC. The separation employed a 5 minute isocratic step at 20% eluant B in A, followed by two consecutive 30 minute linear gradients from 20 to 50%, then from 50 to 60% eluant B in A (where eluant A is water containing 0. 1% TFA and eluant B is acetonitrile containing 0.1% TFA) at a flow rate of 1.5 ml/min. […] The incubation would last for 3 hours at 4° C. before the media was aspirated and the cells were dissolved in 0.1N NaOH for scintillation counting.

Assay [3] has as its target T2, mouse leptin (mouse), P41160.
T2 chain: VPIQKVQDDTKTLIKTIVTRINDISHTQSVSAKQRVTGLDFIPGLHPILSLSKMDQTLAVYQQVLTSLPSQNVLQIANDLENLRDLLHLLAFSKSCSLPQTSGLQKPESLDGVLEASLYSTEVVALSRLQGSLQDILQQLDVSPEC
Put plainly: human CRP against mouse leptin (~2 ng/ml) binding to OB-Rb HEK293 cells (FIG. 3G). The settings on record: remark: other sources report otherwise.

In assay [4] the target is T1, human leptin (SEQ ID NO:4). Put plainly: human CRP pre-incubated with 125I-human leptin (~2 ng/ml); inhibition of leptin binding to OB-Rb HEK293 cells, scintillation counting. On the procedure: as §1
In another assay the target is T3, rat C-reactive protein (rat, UniProt P48199 20-230).
T3 construct: also called rat CRP; rat SLIP-1
T3 sequence (looked up): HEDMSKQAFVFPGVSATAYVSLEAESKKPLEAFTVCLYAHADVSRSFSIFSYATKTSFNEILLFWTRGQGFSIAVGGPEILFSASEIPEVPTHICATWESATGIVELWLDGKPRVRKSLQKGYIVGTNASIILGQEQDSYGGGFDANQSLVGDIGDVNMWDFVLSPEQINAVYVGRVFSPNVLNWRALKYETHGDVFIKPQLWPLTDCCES
Put plainly: immunoprecipitation with anti-mouse leptin, western blot with anti-CRP. On the technique in general: In western blotting, separated proteins are transferred to a membrane and probed.

A word on the Kd: it is a measure of binding affinity in units of concentration. A higher Kd goes with lower affinity. Broadly, the IC50 is the point on the concentration scale where inhibition reaches its midpoint. Higher therefore signals weaker potency in that assay.

Where only a bound is given, the exact number is not on record here.

long-form human leptin receptor, OB-Rb (human), sequence (P48357 22-1165): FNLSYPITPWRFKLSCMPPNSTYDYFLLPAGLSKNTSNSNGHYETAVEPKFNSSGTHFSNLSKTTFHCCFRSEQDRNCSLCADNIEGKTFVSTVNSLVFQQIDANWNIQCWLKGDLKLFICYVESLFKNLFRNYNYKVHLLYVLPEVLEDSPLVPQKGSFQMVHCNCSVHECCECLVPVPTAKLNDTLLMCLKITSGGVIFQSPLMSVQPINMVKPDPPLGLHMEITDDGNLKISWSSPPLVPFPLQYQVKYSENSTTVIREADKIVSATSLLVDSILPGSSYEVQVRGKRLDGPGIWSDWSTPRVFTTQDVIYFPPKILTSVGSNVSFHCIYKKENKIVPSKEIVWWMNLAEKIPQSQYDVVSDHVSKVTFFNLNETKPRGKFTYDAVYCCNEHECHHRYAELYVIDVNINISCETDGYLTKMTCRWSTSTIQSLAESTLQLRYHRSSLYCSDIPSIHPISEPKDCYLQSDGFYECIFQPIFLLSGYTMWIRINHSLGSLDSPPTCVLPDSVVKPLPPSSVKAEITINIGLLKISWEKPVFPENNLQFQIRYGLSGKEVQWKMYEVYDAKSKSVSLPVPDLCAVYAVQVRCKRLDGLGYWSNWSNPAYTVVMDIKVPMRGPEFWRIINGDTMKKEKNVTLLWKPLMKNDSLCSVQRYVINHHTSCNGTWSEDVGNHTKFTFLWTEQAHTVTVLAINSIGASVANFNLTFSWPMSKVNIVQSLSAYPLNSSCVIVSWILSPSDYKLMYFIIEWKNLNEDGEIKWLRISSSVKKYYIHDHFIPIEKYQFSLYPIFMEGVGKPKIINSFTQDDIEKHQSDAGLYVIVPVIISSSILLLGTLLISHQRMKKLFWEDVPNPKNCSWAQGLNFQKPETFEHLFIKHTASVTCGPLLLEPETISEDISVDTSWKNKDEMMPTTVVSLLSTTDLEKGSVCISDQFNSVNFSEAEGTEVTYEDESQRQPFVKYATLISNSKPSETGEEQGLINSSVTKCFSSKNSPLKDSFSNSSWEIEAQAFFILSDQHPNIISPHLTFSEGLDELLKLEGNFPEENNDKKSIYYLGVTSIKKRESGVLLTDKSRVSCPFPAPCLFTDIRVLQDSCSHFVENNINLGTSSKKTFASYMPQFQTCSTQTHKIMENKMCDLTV

“human leptin (SEQ ID NO:4) (from UniProt P41159 22-167) (ligand)” had a Kd in assay [1] of 1 nM. This lies in the single-digit nanomolar range.

B1: human C-reactive protein (other, UniProt P02741 19-224, looked up)
chain: QTDMSRKAFVFPKESDTSYVSLKAPLTKPLKAFTVCLHFYTELSSTRGYSIFSYATKRQDNEILIFWSKDIGYSFTVGGSEILFEVPEVTVAPVHICTSWESASGIVEFWVDGKPRVRKSLKKGYTVGAEASIILGQEQDSFGGNFEGSQSLVGDIGNVNMWDFVLSPDEINTIYLGGPFSPNVLNWRALKYEVQGEVFTKPQLWP
notes: Human SLIP-1 from the leptin column was identified as human CRP; also called human CRP; CRP
In the case of B1, the “molecular ratio CRP:leptin at the IC50” value in assay [2] was 5.8 CRP:leptin (molar, CRP pentamer). Besides, the IC50 in assay [3] was > 64 µg/mL; in assay [4] it was ~0.08 µg/mL.

B2: mouse leptin (ligand, UniProt P41160 22-167, looked up)
chain: T2 chain
notes: Recombinant; also called recombinant mouse leptin; murine leptin
Take B2: in the assay with rat C-reactive protein, the binding result is “binds”.
